Measurements reported in patent US10793872B2, “HPPD variants and methods of use” (Bayer CropScience AG, priority 2012, dated 2020).
Like-named read-outs stand apart in the source and are kept apart here.

Tests used:
[1] = biological target: T1, Pseudomonas fluorescens HPPD variant PfHPPDEvo36 (serine for glutamic acid at 335, serine for tryptophan at 336, threonine for lysine at 339, glutamine for alan (Pseudomonas sp., UniProt P80064, A339Q/E334S/G335S/K338T)); type: biochemical; details: PfHPPDEvo36 extract titrated on 250 uM inhibitor
T1 construct: made in house; host or cells: E. coli (DH5alpha for library screening)
Method: The theoretical diversity of this library was 640. Screening was carried out as described in Example 3.

[2] = biological target: T2, Pseudomonas fluorescens HPPD variant C024H11, SEQ ID NO:5 (Pseudomonas sp., UniProt P80064, G335W/P214L); assay: biochemical
T2 construct: C024H11; […]; made in house; host or cells: E. coli (DH5alpha for library screening)

[3] = biological target: T3, Pseudomonas fluorescens HPPD variant CO212f3, SEQ ID NO:10 (Pseudomonas sp., UniProt P80064, A339V/E334G/G335W); assay: biochemical
T3 construct: CO212f3; […]; Ala + His6 directly after the start Met (N); made in house; host or cells: E. coli

[4] = biological target: Pseudomonas fluorescens HPPD variant PfHPPDEvo40, SEQ ID NO:8 (Pseudomonas sp., UniProt P80064, A339E/E334P/G335S); assay: HPPD inhibition, HPLC based assay, PfHPPDEvo40
Soybean plants [5] = assay: Spray test of soybean plants expressing HPPD for tolerance to tembotrione; type: in vivo; details: tembotrione (LAUDIS SC) 184 grams/hectare, one week after spraying; for Number of plants rated +: + = completely bleached; for Number of plants rated ++ or +++: slight tolerance or very little effect
Method: Soybean plants expressing an HPPD inhibitor tolerant enzyme of the present invention, along with a gene conferring tolerance to glyphosate and a gene conferring tolerance to glufosinate, were tested for tolerance to tembotrione. A DeVries Tracker Sprayer was calibrated prior to each spraying. The chemical formulation used for tembotrione testing was LAUDIS® SC formulation. Spray tests were conducted using 184 grams/hectare; 34.5% TBT. Tolerance was evaluated one week after spraying. A rating of “+” was assigned to plants that were completely bleached in the actively growing tissue. A rating of “++” was assigned to plants having slight tolerance, i.e., the newest plant tissues had some green and are not bleached completely. A rating of “+++” was assigned to plants showing very little effect from spray, i.e., some chlorosis or very slight bleaching was present.

HPPD [6] = details: reaction stopped after 24 min
Method: Kon=K1 equals the association rate constant of the […] and Koff=K−1 equals the rate constant of the enzyme-inhibitor complex dissociation. Ki defines the inhibition constant. For the determination of the specific activity of the enzymes, samples were incubated, and the reaction was stopped after 24 min. The specific activity was estimated by μg of protein.
For the determination of the specific activity of the enzymes, samples were incubated, and the reaction was stopped after 24 min. The specific activity was estimated by μg of protein.
Samples were incubated, and the reaction was stopped after 24 min. The specific activity was estimated by μg of protein.

[7] = system: E. coli cells expressing HPPDs; assay: Plating whole E. coli cells expressing HPPDs on media containing HPPD inhibitors; type: cell-based; details: whole E. coli cells on plates with 250 uM inhibitor, 18 hours at 37 degrees C
Method: Variants were also tested by plating whole E. coli cells expressing HPPDs on media containing various HPPD inhibitors. For these experiments, DH5alpha cells containing HPPD expressing plasmids were grown in LB media+kanamycin until an OD600 nm=0.5 was reached. Serial dilutions of cells were prepared in LB media+kanamycin corresponding to OD600 values of 0.016, 0.008, 0.004, and 0.002. Ten microliters of each dilution were plated in triplicate on plates containing no HPPD inhibitor, 250 uM TBT, 250 uM DKN and 250 uM mesotrione (MST). Plates were incubated for 18 hours at 37 degrees C.

Soybean plants [8] = assay: Field trials of soybean events expressing HPPD, post-emergent HPPD inhibitor application, phytotoxicity; type: in vivo; details: for events exhibiting less than or equal to 20% average phytotoxicity: T1 events, evaluated after 7 days; for events exhibiting less than or equal to 20% average phytotoxicity / events exhibiting less than or equal to 25% maximum phytotoxicity: post-emergent tembotrione 200 g ai/ha; for events exhibiting less than or equal to 25% maximum phytotoxicity: field trial United States (Minnesota); for events exhibiting less than or equal to 25% maximum phytotoxicity / events exhibiting less than or equal to 18% maximum phytotoxicity: T2; for events exhibiting less than or equal to 18% maximum phytotoxicity: field trial in Argentina, post-emergent isoxaflutole 210 g ai/ha
From the text: The plants were sprayed at the v2-v3 stage with 1× glufosinate. Five days after treatment with glufosinate, the surviving plants were sprayed with 2× tembotrione, 2× mesotrione, or 2× isoxaflutole and evaluated for phytotoxicity after 7 days.

HPPD [9] = details: Table 14
HPPD [10] = system: HPPD
Method: For Km and Vmax value determinations the initial rates of the HPPD reaction at different substrate concentrations were determined from plots of HGA formed versus time and fitted to the Michaelis-Menten equation for unireactant enzymes using the ID Business Solutions Ltd. (www.idbs.com) XLfit software suite.
In below given Table 1, “Km” (Michaelis-Menten constant) means the kinetic parameter that is used to characterize an enzyme, and it is defined as the concentration of substrate that permits half maximal rate of the reaction. Km is further defined as the substrate concentration at which the reaction rate reaches half of its maximum value (Vmax/2) where Vmax has the meaning of being the maximum velocity of the reaction.

[11] = spectrophotometric method, Table 6

T2 sequence (P80064 other isoform, or with tags, fused parts or gaps with the stated changes): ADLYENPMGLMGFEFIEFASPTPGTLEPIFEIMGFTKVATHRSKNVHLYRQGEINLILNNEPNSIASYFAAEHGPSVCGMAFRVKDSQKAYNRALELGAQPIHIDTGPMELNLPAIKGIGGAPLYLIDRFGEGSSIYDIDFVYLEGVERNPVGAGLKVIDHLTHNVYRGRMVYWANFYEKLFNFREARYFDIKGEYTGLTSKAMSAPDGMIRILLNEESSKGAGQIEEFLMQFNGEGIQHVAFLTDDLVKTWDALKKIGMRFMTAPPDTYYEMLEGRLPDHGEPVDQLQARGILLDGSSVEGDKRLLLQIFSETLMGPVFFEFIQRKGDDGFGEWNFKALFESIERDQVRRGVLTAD
T3 sequence (P80064 other isoform, or with tags, fused parts or gaps with the stated changes): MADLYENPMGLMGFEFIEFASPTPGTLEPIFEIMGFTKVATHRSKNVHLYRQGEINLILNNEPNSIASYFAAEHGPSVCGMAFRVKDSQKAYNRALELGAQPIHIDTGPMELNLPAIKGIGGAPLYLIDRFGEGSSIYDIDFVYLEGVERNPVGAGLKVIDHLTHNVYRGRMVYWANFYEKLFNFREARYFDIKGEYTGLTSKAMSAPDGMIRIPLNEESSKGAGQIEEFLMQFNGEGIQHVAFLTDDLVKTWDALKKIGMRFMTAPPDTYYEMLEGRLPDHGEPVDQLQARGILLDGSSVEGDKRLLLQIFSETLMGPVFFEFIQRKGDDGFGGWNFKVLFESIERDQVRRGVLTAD

Molecule | improved tolerance compared to PfG336W [1] | improved tolerance compared to PfHPPDEvo33 [1] | IC50 [2] | IC50 [3] | IC50 [4] | Percent ++ or +++ (Soybean plants [5]) | Number of plants rated + (Soybean plants [5]) | Number of plants rated ++ or +++ (Soybean plants [5]) | Specific activity (HPPD [6]; [11]) | tolerance to TBT and MST compared to PfG336W [7] | Specific activity (HPPD [6]; Table 1) | events exhibiting less than or equal to 20% average phytotoxicity (Soybean plants [8]) | events exhibiting less than or equal to 25% maximum phytotoxicity (Soybean plants [8]) | events exhibiting less than or equal to 18% maximum phytotoxicity (Soybean plants [8]) | Km (HPPD [9]) | Km (HPPD [10]; Table 9, same values as Table 5) | Km (HPPD [10]; read-out: HPP Km, substrate HPP, Table 5) | HPP Kcat (HPPD [10]; substrate HPP, Table 5)
CS(=O)(=O)c1ccc(C(=O)C2C(=O)CCCC2=O)c(Cl)c1COCC(F)(F)F [Tembotrione, 2-[2-chloro-4-(methylsulfonyl)-3-[(2,2,2,-tri-fluoroethoxy)methyl]benzoyl]-1,3-cyclo-hexanedione] | 16 × | 4 × | 15.8 µM | 15.8 µM | 10 µM | – | – | – | – | – | – | – | – | – | – | – | – | –
PfHPPDEvo40: HPPD variant SEQ ID NO:8 (protein, HPPD mutant - PfHPPDEvo40) MADLYENPMGLMGFEFIEFASPTPGTLEPIFEIMGFTKVATHRSKNVHLYRQGEINLILNNEPNSIASYFAAEHGPSVCGMAFRVKDSQKAYNRALELGAQPIHIDTGPMELNLPAIKGIGGAPLYLIDRFGEGSSIYDIDFVYLEGVERNPVGAGLKVIDHLTHNVYRGRMVYWANFYEKLFNFREARYFDIKGEYTGLTSKAMSAPDGMIRIPLNEESSKGAGQIEEFLMQFNGEGIQHVAFLTDDLVKTWDALKKIGMRFMTAPPDTYYEMLEGRLPDHGEPVDQLQARGILLDGSSVEGDKRLLLQIFSETLMGPVFFEFIQRKGDDGFGPSNFKELFESIERDQVRRGVLTAD | – | – | – | – | – | 31.4% | 60 | 65 | 0.42 Delta Absorbance/24 min/μg pro | improved tolerance | – | – | – | – | – | – | – | –
PfG336W: Pseudomonas fluorescens HPPD mutant, glycine at position 336 replaced by tryptophan, SEQ ID NO:2 (protein, HPPD mutant - PfG336W) MADLYENPMGLMGFEFIEFASPTPGTLEPIFEIMGFTKVATHRSKNVHLYRQGEINLILNNEPNSIASYFAAEHGPSVCGMAFRVKDSQKAYNRALELGAQPIHIDTGPMELNLPAIKGIGGAPLYLIDRFGEGSSIYDIDFVYLEGVERNPVGAGLKVIDHLTHNVYRGRMVYWANFYEKLFNFREARYFDIKGEYTGLTSKAMSAPDGMIRIPLNEESSKGAGQIEEFLMQFNGEGIQHVAFLTDDLVKTWDALKKIGMRFMTAPPDTYYEMLEGRLPDHGEPVDQLQARGILLDGSSVEGDKRLLLQIFSETLMGPVFFEFIQRKGDDGFGEWNFKALFESIERDQVRRGVLTAD | – | – | – | – | – | 7.12% | 811 | 160 | 0.4 Delta Absorbance/24 min/μg pro | – | 0.40 ΔE/24 min μg Protein | 0 out of 18 | 1 out of 11 | 1 out of 3 | – | – | – | –
PfHPPDEvo36: HPPD variant SEQ ID NO:7; 335 serine, 336 serine, 339 threonine, 340 glutamine relative to PfG336W (protein, HPPD mutant - PfHPPDEvo36) MADLYENPMGLMGFEFIEFASPTPGTLEPIFEIMGFTKVATHRSKNVHLYRQGEINLILNNEPNSIASYFAAEHGPSVCGMAFRVKDSQKAYNRALELGAQPIHIDTGPMELNLPAIKGIGGAPLYLIDRFGEGSSIYDIDFVYLEGVERNPVGAGLKVIDHLTHNVYRGRMVYWANFYEKLFNFREARYFDIKGEYTGLTSKAMSAPDGMIRIPLNEESSKGAGQIEEFLMQFNGEGIQHVAFLTDDLVKTWDALKKIGMRFMTAPPDTYYEMLEGRLPDHGEPVDQLQARGILLDGSSVEGDKRLLLQIFSETLMGPVFFEFIQRKGDDGFGSSNFTQLFESIERDQVRRGVLTAD | – | – | – | – | – | 20.45% | 47 | 18 | 0.82 Delta Absorbance/24 min/μg pro | – | – | – | – | – | – | – | – | –
PfHPPDEvo41: HPPD variant SEQ ID NO:16 (protein, HPPD mutant - PfHPPDEvo41) MADLYENPMGLMGFEFIEFASPTPGTLEPIFEIMGFTKVATHRSKNVHLYRQGEINLILNNEPNSIASYFAAEHGPSVCGMAFRVKDSQKAYNRALELGAQPIHIDTGPMELNLPAIKGIGGAPLYLIDRFGEGSSIYDIDFVYLEGVERNPVGAGLKVIDHLTHNVYRGRMVYWANFYEKLFNFREARYFDIKGEYTGLTSKAMSAPDGMIRIPLNEESSKGAGQIEEFLMQFNGEGIQHVAFLTDDLVKTWDALKKIGMRFMTAPPDTYYEMLEGRLPDHGEPVDQLQARGILLDGSSVEGDKRLLLQIFSETLMGPVFFEFIQRKGDDGFGPWNFAQLFESIERDQVRRGVLTAD | – | – | – | – | – | 32.75% | 412 | 279 | 0.44 Delta Absorbance/24 min/μg pro | improved tolerance | – | Nine out of 18 | 7 out of 7 | 5 out of 10 | 336 µM | 336 µM | 336 µM | 1.1 s⁻¹
